In the RNAGym collection of RNA variant scans (doi:10.1021/acssynbio.7b00057):

B1: Pistol ribozyme (parent)
chain: GGGUCGUUGUUCCAUAAUCGCGUGGAUAUGGCACGCAAGUUUCUACCGGGCACCGUAAAUGUCCGACUGGAGCCGUUCGGGCGGCUAUAAACAGACCUCAGGCCCGAAGCGUGGCGGCACCUGCCGCCGGUGGUAAAAAAGAUCGGAAGAGCACACGUCU

Variants of: B1
Assay: aptazyme ON/OFF ratio, guanine; higher = stronger switching; co-transcriptional cleavage with and without guanine

| Variant | aptazyme ON/OFF ratio |
| --- | --- |
| U8G G9U U10G U11C C12A | 1.02 |
| U8G G9U U10G U11C C12U | 1.04 |
| U8G G9U U10G U11C C12G | 1.03 |
| U8G G9U U10C U11G C12A | 1.12 |
| U8G G9U U10C U11G C12U | 1.19 |
| U8G G9U U10C U11G C12G | 1.25 |
| U8G G9C U11G C12U C13U | 1.25 |
| U8G G9C U11G C12U C13A | 1.1 |
| U8G G9C U11G C12U C13G | 1.13 |
| U8G G9U U11G C12G | 1.39 |
| U8G G9U U11G C12A | 1.32 |
| U8G G9U U11G C12U | 1.27 |
| U8G G9U C12G | 1.64 |
| U8G G9U C12U | 1.77 |
| U8G G9U C12A | 1.57 |
| U8G G9U U11G | 1.36 |
| U8G G9U U11C | 1.24 |
| U8G G9U U11A | 1.73 |
| U8G G9U U10C U11C C12U C13A | 1.02 |
| U8G G9U U10C U11C C12U C13U | 1.06 |
| U8G G9U U10C U11C C12U C13G | 1.02 |

| Variant | aptazyme ON/OFF ratio |
| --- | --- |
| U8G G9U U10C U11C C13U | 1.02 |
| U8G G9U U10C U11C C13G | 1.04 |
| U8G G9U U10C U11C C13A | 1.04 |
| U8G G9U U10G U11A C13A | 1.01 |
| U8G G9U U10G U11A C13U | 1.03 |
| U8G G9U U10G U11A C13G | 1.04 |
| U8G G9C U10G U11G C13A | 1.16 |
| U8G G9C U10G U11G C13U | 1.12 |
| U8G G9C U10G U11G C13G | 1.12 |
| U8G G9U U10A U11C C12G C13G | 1.11 |
| U8G G9U U10A U11C C12G C13U | 1.11 |
| U8G G9U U10A U11C C12G C13A | 1.08 |
| U8G G9C U11C C12A C13G | 1.04 |
| U8G G9C U11C C12A C13A | 1.04 |
| U8G G9C U11C C12A C13U | 1.04 |
| U8G G9C U10G U11G C12G | 1.31 |
| U8G G9C U10G U11G C12U | 1.23 |
| U8G G9C U10G U11G C12A | 1.21 |
| U8G G9U U10A U11A C13A | 1.19 |
| U8G G9U U10A U11A C13U | 1.25 |
| U8G G9U U10A U11A C13G | 1.09 |

| Variant | aptazyme ON/OFF ratio |
| --- | --- |
| U8G G9U C12G C13A | 1.3 |
| U8G G9U C12G C13U | 1.31 |
| U8G G9U C12G C13G | 1.27 |
| U8G G9U U11C C12U C13A | 1.06 |
| U8G G9U U11C C12U C13G | 1.08 |
| U8G G9U U11C C12U C13U | 1.03 |
| U8G U10A | 1.15 |
| U8G G9U U11G C12G C13G | 1.36 |
| U8G G9U U11G C12G C13U | 1.22 |
| U8G G9U U11G C12G C13A | 1.21 |
| U8G G9U U11G C12A C13G | 1.19 |
| U8G G9U U11G C12A C13U | 1.21 |
| U8G G9U U11G C12A C13A | 1.14 |
| U8G G9U U10G U11A C12A C13U | 1.03 |
| U8G G9U U10G U11A C12A C13G | 1.03 |
| U8G G9U U10G U11A C12A C13A | 1.04 |
| U8G G9U U10G U11C C12A C13G | 1.02 |
| U8G G9U U10G U11C C12A C13A | 1.02 |
| U8G G9U U10G U11C C12A C13U | 1.03 |
| U8G G9U U10A C12A C13U | 1.25 |
| U8G G9U U10A C12A C13G | 1.18 |

| Variant | aptazyme ON/OFF ratio |
| --- | --- |
| U8G G9U U10A C12A C13A | 1.21 |
| U8G G9U U11A C12G | 1.25 |
| U8G G9U U11A C12A | 1.42 |
| U8G G9U U11A C12U | 1.36 |
| U8G G9C U11C | 1.03 |
| U8G G9C U11G | 1.14 |
| U8G G9C U11A | 1.13 |
| U8G G9U U10C U11C C12A | 1.04 |
| U8G G9U U10C U11C C12G | 1.02 |
| U8G G9U U10C U11C C12U | 1.03 |
| U8G G9U U10A U11C C13A | 1.02 |
| U8G G9U U10A U11C C13U | 1.01 |
| U8G G9U U10A U11C C13G | 1.03 |
| U8G G9U U11C C13G | 1.03 |
| U8G G9U U11C C13A | 1.1 |
| U8G G9U U11C C13U | 1.08 |
| U8G G9U U10G U11A C12A | 1.08 |
| U8G G9U U10G U11A C12G | 1.06 |
| U8G G9U U10G U11A C12U | 1.03 |
| U8G G9U U10G C12A | 1.04 |
